Where two headings read alike, the source gives them in different places.
Columns and labels:
[1] = target: full-length SlyD from Thermus thermophilus (TtSlyDFL) (Thermus thermophilus)
[2] = target: chimeric TtSlyD construct in which the IF domain is replaced by the flap loop from human FKBP12 (TtSlyDΔIF) (Thermus thermophilus | human) (UniProt P62942)
[3] = target: chimeric TtSlyD construct in which the IF domain is replaced by the flap loop from human FKBP12 (TtSlyDΔIF) (Thermus thermophilus | human) (UniProt P62942); remark: listed apart in the source
[4] = target: TtSlyDFL Y63F (Thermus thermophilus)
[5] = target: chimeric TtSlyD construct in which the IF domain is replaced by the flap loop from human FKBP12 (TtSlyDΔIF) (Thermus thermophilus | human) (UniProt P62942); remark: listed apart in the source
[6] = target: full-length SlyD from Thermus thermophilus (TtSlyDFL) (Thermus thermophilus); remark: listed apart in the source
[7] = target: chimeric TtSlyD construct in which the IF domain is replaced by the flap loop from human FKBP12 (TtSlyDΔIF) (Thermus thermophilus | human) (UniProt P62942); remark: listed apart in the source
[8] = target: full-length SlyD from Thermus thermophilus (TtSlyDFL) (Thermus thermophilus); remark: listed apart in the source
[9] = target: full-length SlyD from Thermus thermophilus (TtSlyDFL) (Thermus thermophilus); remark: listed apart in the source
[10] = target: chimeric TtSlyD construct in which the IF domain is replaced by the flap loop from human FKBP12 (TtSlyDΔIF) (Thermus thermophilus | human) (UniProt P62942); remark: listed apart in the source

| Substance | KD1 (site 1, IF domain) [1] [µM] | KD2 (site 2, FKBP domain) [1] [µM] | N1 (site 1, IF domain) [1] | N2 (site 2, FKBP domain) [1] | dH1 (site 1, IF domain) [1] [kcal/mol] | dH2 (site 2, FKBP domain) [1] [kcal/mol] | Kd [3] [µM] | dH [3] [kcal/mol] | stoichiometry N [3] | KD1 (site 1, IF domain) [9] [µM] | KD2 (site 2, FKBP domain) [9] [µM] | N1 (site 1, IF domain) [9] | N2 (site 2, FKBP domain) [9] | dH1 (site 1, IF domain) [9] [kcal/mol] | dH2 (site 2, FKBP domain) [9] [kcal/mol] | further results |
| --- | --- | --- | --- | --- | --- | --- | --- | --- | --- | --- | --- | --- | --- | --- | --- | --- |
| S2-P25N/P29N peptide (from UniProt P0A7V0 20-34) | 0.234 | 8.33 | 0.93 | 1.18 | -16.8 | -2.3 |  |  |  |  |  |  |  |  |  |  |
| S2-P29E peptide (from UniProt P0A7V0 20-34) |  |  |  |  |  |  | 13.8 | -10.8 | 0.69 | 0.513 | 5.68 | 0.88 | 1.02 | -15.8 | -2.7 |  |
| S2-W23A peptide (from UniProt P0A7V0 20-34) |  |  |  |  |  |  | 17.1 | -8.1 | 0.77 | 0.855 | 18.8 | 0.76 | 0.91 | -15.8 | -2.3 |  |
| SlpA linker P5T peptide |  |  |  |  |  |  |  |  |  |  |  |  |  |  |  | Kd [9]: 130 µM; dH [9]: -0.9 kcal/mol; stoichiometry N [9]: 1.76 |

More lines, main results first:

| KD1 (site 1, IF domain) [1] [µM] | KD2 (site 2, FKBP domain) [1] [µM] | N1 (site 1, IF domain) [1] | N2 (site 2, FKBP domain) [1] | dH1 (site 1, IF domain) [1] [kcal/mol] | dH2 (site 2, FKBP domain) [1] [kcal/mol] | Kd [3] [µM] | dH [3] [kcal/mol] | stoichiometry N [3] | KD1 (site 1, IF domain) [9] [µM] | KD2 (site 2, FKBP domain) [9] [µM] | N1 (site 1, IF domain) [9] | N2 (site 2, FKBP domain) [9] | dH1 (site 1, IF domain) [9] [kcal/mol] | dH2 (site 2, FKBP domain) [9] [kcal/mol] | Substance | further results |
| --- | --- | --- | --- | --- | --- | --- | --- | --- | --- | --- | --- | --- | --- | --- | --- | --- |
| 0.15 | 3.16 | 0.98 | 1.05 | -14.8 | -8.9 | 14.4 | -10 | 0.91 |  |  |  |  |  |  | S2 peptide | Kd [2]: 12.2 µM; dH [2]: -5.9 kcal/mol; stoichiometry N [2]: 0.88; KD1 (site 1, IF domain) [4]: 0.03 µM; KD2 (site 2, FKBP domain) [4]: 1.58 µM; N1 (site 1, IF domain) [4]: 0.81; N2 (site 2, FKBP domain) [4]: 0.78; dH1 (site 1, IF domain) [4]: -11.3 kcal/mol; dH2 (site 2, FKBP domain) [4]: -6 kcal/mol |
|  |  |  |  |  |  | 12.1 | -11.7 | 0.91 | 0.129 | 7.04 | 0.92 | 1.02 | -16.6 | -8.5 | S2-P25A peptide (from UniProt P0A7V0 20-34) | kcat/KM of peptidyl-prolyl cis/trans isomerization of the S2-P25A peptide, NMR lineshape analysis, 25 °C, 0.2 μM enzyme [5]: 2.48e+08 M⁻¹ s⁻¹; kcat/KM of peptidyl-prolyl cis/trans isomerization of the S2-P25A peptide, NMR lineshape analysis, 25 °C, 0.2 μM enzyme, peptide 10–1000 μM [6]: 3.68e+08 M⁻¹ s⁻¹; kcat/KM of peptidyl-prolyl cis/trans isomerization of the S2-P25A peptide, NMR lineshape analysis, 25 °C, 0.2 μM enzyme [7]: 2.84e+08 M⁻¹ s⁻¹; KM of peptidyl-prolyl cis/trans isomerization of the S2-P25A peptide (cis form), Michaelis-Menten fit of NMR lineshape data, 25 °C [8]: 2000 µM |
| 1.45 | 44 | 1.13 | 1.09 | -14.1 | -5.9 |  |  |  |  |  |  |  |  |  | S2-P25A/P29E peptide (from UniProt P0A7V0 20-34) | Kd [10]: 29 µM; dH [10]: -6.3 kcal/mol; stoichiometry N [10]: 0.84 |
